Measurements as given in patent US20110143963A1 (UNIVERSITY OF CHICAGO, published 2011).
Where no end group is shown, it is not given here.

Experiments:
[1] = molecular target: T1, target motif GGRSWFETWV-COOH; assay: phage display format and SPR
T1 construct: also called target peptide
T1 peptide: GGRSWFETWV-OH
Experimental: From visual inspection of the erbin PDZ structure and a sequence alignment of PDZ domains, three potential sites were identified for the new termini in a circularly permutated PDZ domain. Three mutant PDZ domains, in which four Gly residues were inserted in one of the three candidate sites, were assayed for binding to the target motif using the phage display format.

[2] = molecular target: T2, SUMO-ARVCF fusion protein (yeast); assay: SPR, equilibrium mode, target peptide fused to yeast SUMO
T2 construct: also called target peptide fused to the yeast SUMO protein; the target

[3] = molecular target: T2, SUMO-ARVCF fusion protein; assay: SPR, ratio of Kd
[4] = molecular target: T3, ARVCF peptide PQPVDSWV-COOH (eight-residue motif corresponding to the ARVCF C-terminus) (not fully specified; printed as PQPVDSWV-COOH); assay: SPR (error 13500 stands in r16c7)
T3 construct: also called ARVCF target peptide; AVFCF peptide
T3 peptide: PQPVDSWV-OH

[5] = molecular target: T3, ARVCF peptide PQPVDSWV-COOH …; assay: SPR (BIAcore)
[6] = molecular target: T3, ARVCF peptide PQPVDSWV-COOH …; assay: SPR, ratio of Kd

B1: circularly permutated PDZ domain (designed binder)
chain: PELGFSISGGVGGRGNPFRPDDDGIFVTRVQPEGPASKLLQPGDKIIQANGYSFINIEHGQAVSLLKTFQNTVELIIVREVGNGAKQEIRVRVEKD
notes: The order would be PDZ residues 21 to C-terminus, Asn-Gly, then residues 1-20; also called cpPDZ
binding result [1]: binds

B2: peptide-PDZ affinity clamp, clone 282-6 (designed binder)
chain: GSNFCASNGTGNDCRRPELGFSISGGVGGRGNPFRPDDDGIFVTRVQPEGPASKLLQPGDKIIQANGYSFINIEHGQAVSLLKTFQNTVELIIVREVGNGAKQEIRVRVEKDGG
modifications: disulfide-constrained (Cys-constrained) peptide segment
Kd [2]: 0.91 µM
fold higher affinity than the parent interaction domain (cpPDZ) [3]: 12 fold

B3: fusion protein of cpPDZ and FN3 (starting material) (designed binder)
chain: PELGFSISGGVGGRGNPFRPDDDGIFVTRVQPEGPASKLLQPGDKIIQANGYSFINIEHGQAVSLLKTFQNTVELIIVREVGNGAKQEIRVRVEKDGGSGGVSSVPTNLEVVAATPTSLLISWDASSSSVSYYRITYGETGGNSPVQEFTVPGSKSTATISGLKPGVDYTITVYASSSSSSSSSSPISINYRT
Kd [4]: 24.8 µM
Kd [5]: 25 µM
Affinity Enhancement (Kd of cpPDZFN for ARVCF / Kd of the clamp) [6]: 1 fold
